Laboratory results: US20230131339A1, “EPI-X4 BASED PEPTIDES AND DERIVATIVES THEREOF” (Universitaet Ulm, priority 2020, published 2023)
Values joined by “and” are separate entries in the source; they are usually repeats but may differ in a detail not shown here. Equal entries are not always repeated. Where a SMILES comes first, the peptide text is derived from it. Primed or numbered codes have the meaning given here. Where no end group is shown, it is not given here. Side-chain parts run from the residue outwards. [ ]: non-standard residue; d: D form. The star is where a group is joined. Glu″ = glutamate linker (Glu-Pal); Palmitoyl = CCCCCCCCCCCCCCCC(=O)*; Myristoyl = CCCCCCCCCCCCCC(=O)*; Glu = glutamate linker; Ole = not defined here; Chl = cholesterol

B1: JM#13 (peptide)
peptide: ILRWSRKMPCVS
B2: JM#192 (peptide)
peptide: ILRWSRK-NH2
modifications: not fully specified (residue 7)
B3: JM#238 (peptide)
peptide: [dI]LRWSRK-NH2
modifications: not fully specified (residue 7)
B4: JM#255 (peptide)
peptide: ILRWSRK-NH2
modifications: not fully specified (residue 7)
B5: JM#172 (peptide)
peptide: ILRWSRK(Palmitoyl)L-NH2
modifications: N-terminus assumed
SMILES: CCCCCCCCCCCCCCCC(=O)NCCCC[C@H](NC(=O)[C@H](CCCNC(=N)N)NC(=O)[C@H](CO)NC(=O)[C@H](Cc1c[nH]c2ccccc12)NC(=O)[C@H](CCCNC(=N)N)NC(=O)[C@H](CC(C)C)NC(=O)[C@@H](N)[C@@H](C)CC)C(=O)N[C@@H](CC(C)C)C(N)=O
B6: SC029 (peptide)
peptide: ILRWSRKLPCVS
modifications: also: peptide copies coupled to the two different ends of PEG 20 kDa
B7: JM#257 (peptide)
peptide: [dL]LRWSRK-NH2
modifications: not fully specified (residue 7)
B8: JM#235 (peptide)
peptide: [dL]LRWSRK-NH2
modifications: not fully specified (residue 7)
B9: JM#213 (peptide)
peptide: ILRWSRKLPCVS
modifications: not fully specified (residue 7)
B10: JM#18 (peptide)
peptide: ILRWSRKMPCLS
B11: JM#183 (peptide)
peptide: ILRWSRK(Ole)LPCVS
modifications: reading uncertain
B12: JM#17 (peptide)
peptide: IMRWSRKMPCVS
B13: JM#204 (peptide)
peptide: ILRWSRKLPCVS
modifications: not fully specified (residue 7)
B14: JM#236 (peptide)
peptide: [dL]LRWSRK(Palmitoyl)-NH2
modifications: N-terminus assumed
SMILES: CCCCCCCCCCCCCCCC(=O)NCCCC[C@H](NC(=O)[C@H](CCCNC(=N)N)NC(=O)[C@H](CO)NC(=O)[C@H](Cc1c[nH]c2ccccc12)NC(=O)[C@H](CCCNC(=N)N)NC(=O)[C@H](CC(C)C)NC(=O)[C@H](N)CC(C)C)C(N)=O
B15: JM#20 (peptide)
peptide: ILRWSRKMPCMS
B16: JM#184 (peptide)
peptide: ILRWSRK(Chl)LPCVS
B17: SEQ ID NO.: 163 (peptide)
peptide: ILRWSRK([Glu-Palmitoyl])LPSVS
B18: SC033 (peptide)
peptide: ILRWSRKLPCVS
modifications: also: PEG-coupled, average 5 kDa
B19: JM#215 (peptide)
peptide: ILRWSRK(Dec)LPCVS
B20: JM#189 (peptide)
peptide: VLRWSRKLPCVS
B21: JM#180 (peptide)
peptide: [dL]MRWSRK(Palmitoyl)-NH2
modifications: N-terminus assumed
SMILES: CCCCCCCCCCCCCCCC(=O)NCCCC[C@H](NC(=O)[C@H](CCCNC(=N)N)NC(=O)[C@H](CO)NC(=O)[C@H](Cc1c[nH]c2ccccc12)NC(=O)[C@H](CCCNC(=N)N)NC(=O)[C@H](CCSC)NC(=O)[C@H](N)CC(C)C)C(N)=O
B22: JM#237 (peptide)
peptide: [dI]LRWSRK(Palmitoyl)-NH2
B23: JM#19 (peptide)
peptide: ILRWSRKMPCFS
B24: JM#194 (peptide)
peptide: [dL]MRWSRK-NH2
modifications: not fully specified (residue 7)
B25: SC024 (peptide)
peptide: ILRWSRKLPCVS
modifications: also: coupled to PEG 20 kDa, site not given here
B26: JM#185 (peptide)
peptide: Ac-ILRWSRKLPCVS
B27: JM#22 (peptide)
peptide: ILRWSRKFPCVS
B28: JM#261 (peptide)
peptide: [dL]LRWSRK(Myristoyl)-NH2
modifications: N-terminus assumed
SMILES: CCCCCCCCCCCCCC(=O)NCCCC[C@H](NC(=O)[C@H](CCCNC(=N)N)NC(=O)[C@H](CO)NC(=O)[C@H](Cc1c[nH]c2ccccc12)NC(=O)[C@H](CCCNC(=N)N)NC(=O)[C@H](CC(C)C)NC(=O)[C@H](N)CC(C)C)C(N)=O

test system: CXCR4-tropic X4-HIV-1 (NL4-3); experiment: not given; format: cell-based; details: not given

Molecule	anti-HIV-1 activity (in words)
d-MLRWSRK(Glu-Pal)-NH2 ([dM]LRWSRK([Glu″-Palmitoyl])-NH2) [JM #196]	strongly increased anti-HIV-1 activity
d-LMRWSRKK(Glu-Pal)-NH2 ([dL]MRWSRKK([Glu″-Palmitoyl])-NH2) [JM #195]	strongly increased anti-HIV-1 activity
d-MLRWSRKK(Glu-Pal)-NH2 ([dM]LRWSRKK([Glu″-Palmitoyl])-NH2) [JM #197]	strongly increased anti-HIV-1 activity

same assay, conditions: CXCR4-tropic X4- (NL4-3)

Molecule	IC50
CC[C@H](C)[C@H](N)C(=O)N[C@@H](CCSC)C(=O)N[C@@H](CCCNC(=N)N)C(=O)N[C@@H](Cc1c[nH]c2ccccc12)C(=O)N[C@@H](CO)C(=O)N[C@@H](CCCNC(=N)N)C(=O)N[C@@H](CCCCN)C(=O)N[C@@H](CCSC)C(=O)N1CCC[C@H]1C(=O)N[C@@H](CS)C(=O)N[C@H](C(=O)N[C@@H](CO)C(=O)O)C(C)C [JM #17] (H-IMRWSRKMPCVS-OH; C-terminus assumed)	< 5 nM
CC[C@H](C)[C@H](N)C(=O)N[C@@H](CC(C)C)C(=O)N[C@@H](CCCNC(=N)N)C(=O)N[C@@H](Cc1c[nH]c2ccccc12)C(=O)N[C@@H](CO)C(=O)N[C@@H](CCCNC(=N)N)C(=O)N[C@@H](CCCCN)C(=O)N[C@@H](CCSC)C(=O)N1CCC[C@H]1C(=O)N[C@@H](CS)C(=O)N[C@@H](Cc1ccccc1)C(=O)N[C@@H](CO)C(=O)O [JM #19] (H-ILRWSRKMPCFS-OH; C-terminus assumed)	5 to 10 nM
CC[C@H](C)[C@H](N)C(=O)N[C@@H](CC(C)C)C(=O)N[C@@H](CCCNC(=N)N)C(=O)N[C@@H](Cc1c[nH]c2ccccc12)C(=O)N[C@@H](CO)C(=O)N[C@@H](CCCNC(=N)N)C(=O)N[C@@H](CCCCN)C(=O)N[C@@H](CCSC)C(=O)N1CCC[C@H]1C(=O)N[C@@H](CS)C(=O)N[C@@H](CCSC)C(=O)N[C@@H](CO)C(=O)O [JM #20] (H-ILRWSRKMPCMS-OH; C-terminus assumed)	< 5 nM
CC[C@H](C)[C@H](N)C(=O)N[C@@H](CC(C)C)C(=O)N[C@@H](CCCNC(=N)N)C(=O)N[C@@H](Cc1c[nH]c2ccccc12)C(=O)N[C@@H](CO)C(=O)N[C@@H](CCCNC(=N)N)C(=O)N[C@@H](CCCCN)C(=O)N[C@@H](Cc1ccccc1)C(=O)N1CCC[C@H]1C(=O)N[C@@H](CS)C(=O)N[C@H](C(=O)N[C@@H](CO)C(=O)O)C(C)C [JM #22] (H-ILRWSRKFPCVS-OH; C-terminus assumed)	< 5 nM
CC[C@H](C)[C@H](N)C(=O)N[C@@H](CC(C)C)C(=O)N[C@@H](CCCNC(=N)N)C(=O)N[C@@H](Cc1c[nH]c2ccccc12)C(=O)N[C@@H](CO)C(=O)N[C@@H](CCCNC(=N)N)C(=O)N[C@@H](CCCCN)C(=O)N[C@@H](CCSC)C(=O)N1CCC[C@H]1C(=O)N[C@@H](CS)C(=O)N[C@H](C(=O)N[C@@H](CO)C(=O)O)C(C)C [JM #13] (H-ILRWSRKMPCVS-OH; C-terminus assumed)	< 5 nM

biological target: CXC chemokine receptor type 4 (CXCR4) (human, UniProt P61073 1-352); experiment: cell-based or functional assay; details: not given
Sequence (P61073 whole entry): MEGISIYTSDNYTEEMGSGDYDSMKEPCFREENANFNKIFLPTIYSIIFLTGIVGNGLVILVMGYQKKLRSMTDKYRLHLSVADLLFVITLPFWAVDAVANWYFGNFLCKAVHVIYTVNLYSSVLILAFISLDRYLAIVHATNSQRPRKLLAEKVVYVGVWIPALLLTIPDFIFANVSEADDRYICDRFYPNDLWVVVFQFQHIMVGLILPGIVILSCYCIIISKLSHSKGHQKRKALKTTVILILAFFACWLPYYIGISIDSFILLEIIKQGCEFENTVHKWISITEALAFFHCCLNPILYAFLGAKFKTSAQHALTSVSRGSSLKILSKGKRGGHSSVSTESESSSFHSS

Molecule	IC50, X4-HIV-1 inhibition assay	IC50, HIV inhibition assay	IC50, HIV-1 inhibition assay
B1	< 5 nM	–	–
B2	< 5 nM and 2 nM	–	–
B3	–	5 to 10 nM	–
B4	< 5 nM	–	–
B5	–	5 to 10 nM	–
B6	–	–	98 nM
B7	–	5 to 10 nM	–
B8	–	5 to 10 nM	–
B9	–	5 to 10 nM	–
B10	< 5 nM	–	–
B11	–	5 to 10 nM	–
B12	< 5 nM	–	–
B13	–	> 150 nM	–
B14	–	> 150 nM	–
B15	< 5 nM	–	–
B16	–	> 150 nM	–
B17	–	> 150 nM	–
B18	–	–	716 nM
B19	–	> 150 nM	–
B20	–	> 150 nM	–
B21	–	5 to 10 nM	–
B22	–	> 150 nM	–
B23	–	5 to 10 nM	–
B24	< 5 nM and 2 nM	–	–
B25	–	–	118 nM
B26	–	> 150 nM	–
B27	< 5 nM	–	–
B28	–	> 150 nM	–
